Bridge positions count the residues as written; N and C are the ends. Square brackets hold non-standard residues; d marks the D form. S5 = C=CCCC[C@](C)(N)C(=O)O; Nle = CCCC[C@H](N)C(=O)O
B1: SP-42 (peptide)
peptide: Ac-FIDEEVL[Nle][S5]LVI[S5][Nle]ALDRE-NH2
modifications: staple 9-13
SMILES: CCCC[C@H](NC(=O)[C@H](CC(C)C)NC(=O)[C@@H](NC(=O)[C@H](CCC(=O)O)NC(=O)[C@H](CCC(=O)O)NC(=O)[C@H](CC(=O)O)NC(=O)[C@@H](NC(=O)[C@H](Cc1ccccc1)NC(C)=O)[C@@H](C)CC)C(C)C)C(=O)N[C@@]1(C)CCCC=CCCC[C@@](C)(C(=O)N[C@@H](CCCC)C(=O)N[C@@H](C)C(=O)N[C@@H](CC(C)C)C(=O)N[C@@H](CC(=O)O)C(=O)N[C@@H](CCCNC(=N)N)C(=O)N[C@@H](CCC(=O)O)C(N)=O)NC(=O)[C@H]([C@@H](C)CC)NC(=O)[C@H](C(C)C)NC(=O)[C@H](CC(C)C)NC1=O
B2: SP-44 (peptide)
peptide: Ac-SIDEEVL[Nle][S5]LVI[S5][Nle]ALDRI-NH2
modifications: staple 9-13
SMILES: CCCC[C@H](NC(=O)[C@H](CC(C)C)NC(=O)[C@@H](NC(=O)[C@H](CCC(=O)O)NC(=O)[C@H](CCC(=O)O)NC(=O)[C@H](CC(=O)O)NC(=O)[C@@H](NC(=O)[C@H](CO)NC(C)=O)[C@@H](C)CC)C(C)C)C(=O)N[C@@]1(C)CCCC=CCCC[C@@](C)(C(=O)N[C@@H](CCCC)C(=O)N[C@@H](C)C(=O)N[C@@H](CC(C)C)C(=O)N[C@@H](CC(=O)O)C(=O)N[C@@H](CCCNC(=N)N)C(=O)N[C@H](C(N)=O)[C@@H](C)CC)NC(=O)[C@H]([C@@H](C)CC)NC(=O)[C@H](C(C)C)NC(=O)[C@H](CC(C)C)NC1=O
B3: SP-49 (peptide)
peptide: Ac-FIDEEVS[Nle][S5]LVI[S5][Nle]ALDRI-NH2
modifications: staple 9-13
SMILES: CCCC[C@H](NC(=O)[C@H](CO)NC(=O)[C@@H](NC(=O)[C@H](CCC(=O)O)NC(=O)[C@H](CCC(=O)O)NC(=O)[C@H](CC(=O)O)NC(=O)[C@@H](NC(=O)[C@H](Cc1ccccc1)NC(C)=O)[C@@H](C)CC)C(C)C)C(=O)N[C@@]1(C)CCCC=CCCC[C@@](C)(C(=O)N[C@@H](CCCC)C(=O)N[C@@H](C)C(=O)N[C@@H](CC(C)C)C(=O)N[C@@H](CC(=O)O)C(=O)N[C@@H](CCCNC(=N)N)C(=O)N[C@H](C(N)=O)[C@@H](C)CC)NC(=O)[C@H]([C@@H](C)CC)NC(=O)[C@H](C(C)C)NC(=O)[C@H](CC(C)C)NC1=O
B4: SP-48 (peptide)
peptide: Ac-FIDEESL[Nle][S5]LVI[S5][Nle]ALDRI-NH2
modifications: staple 9-13
SMILES: CCCC[C@H](NC(=O)[C@H](CC(C)C)NC(=O)[C@H](CO)NC(=O)[C@H](CCC(=O)O)NC(=O)[C@H](CCC(=O)O)NC(=O)[C@H](CC(=O)O)NC(=O)[C@@H](NC(=O)[C@H](Cc1ccccc1)NC(C)=O)[C@@H](C)CC)C(=O)N[C@@]1(C)CCCC=CCCC[C@@](C)(C(=O)N[C@@H](CCCC)C(=O)N[C@@H](C)C(=O)N[C@@H](CC(C)C)C(=O)N[C@@H](CC(=O)O)C(=O)N[C@@H](CCCNC(=N)N)C(=O)N[C@H](C(N)=O)[C@@H](C)CC)NC(=O)[C@H]([C@@H](C)CC)NC(=O)[C@H](C(C)C)NC(=O)[C@H](CC(C)C)NC1=O
B5: SP-45 (peptide)
peptide: Ac-FSDEEVL[Nle][S5]LVI[S5][Nle]ALDRI-NH2
modifications: staple 9-13
SMILES: CCCC[C@H](NC(=O)[C@H](CC(C)C)NC(=O)[C@@H](NC(=O)[C@H](CCC(=O)O)NC(=O)[C@H](CCC(=O)O)NC(=O)[C@H](CC(=O)O)NC(=O)[C@H](CO)NC(=O)[C@H](Cc1ccccc1)NC(C)=O)C(C)C)C(=O)N[C@@]1(C)CCCC=CCCC[C@@](C)(C(=O)N[C@@H](CCCC)C(=O)N[C@@H](C)C(=O)N[C@@H](CC(C)C)C(=O)N[C@@H](CC(=O)O)C(=O)N[C@@H](CCCNC(=N)N)C(=O)N[C@H](C(N)=O)[C@@H](C)CC)NC(=O)[C@H]([C@@H](C)CC)NC(=O)[C@H](C(C)C)NC(=O)[C@H](CC(C)C)NC1=O
B6: SP-250 (peptide)
peptide: Ac-FIDQAVF[Nle][S5]LVI[S5][Nle]ALL-NH2
modifications: staple 9-13
SMILES: CCCC[C@H](NC(=O)[C@H](Cc1ccccc1)NC(=O)[C@@H](NC(=O)[C@H](C)NC(=O)[C@H](CCC(N)=O)NC(=O)[C@H](CC(=O)O)NC(=O)[C@@H](NC(=O)[C@H](Cc1ccccc1)NC(C)=O)[C@@H](C)CC)C(C)C)C(=O)N[C@@]1(C)CCCC=CCCC[C@@](C)(C(=O)N[C@@H](CCCC)C(=O)N[C@@H](C)C(=O)N[C@@H](CC(C)C)C(=O)N[C@@H](CC(C)C)C(N)=O)NC(=O)[C@H]([C@@H](C)CC)NC(=O)[C@H](C(C)C)NC(=O)[C@H](CC(C)C)NC1=O
B7: SP-28 (peptide)
peptide: Ac-FIDEEVLA[S5]LVI[S5]AALDR-NH2
modifications: staple 9-13
SMILES: CC[C@H](C)[C@H](NC(=O)[C@H](Cc1ccccc1)NC(C)=O)C(=O)N[C@@H](CC(=O)O)C(=O)N[C@@H](CCC(=O)O)C(=O)N[C@@H](CCC(=O)O)C(=O)N[C@H](C(=O)N[C@@H](CC(C)C)C(=O)N[C@@H](C)C(=O)N[C@@]1(C)CCCC=CCCC[C@@](C)(C(=O)N[C@@H](C)C(=O)N[C@@H](C)C(=O)N[C@@H](CC(C)C)C(=O)N[C@@H](CC(=O)O)C(=O)N[C@@H](CCCNC(=N)N)C(N)=O)NC(=O)[C@H]([C@@H](C)CC)NC(=O)[C@H](C(C)C)NC(=O)[C@H](CC(C)C)NC1=O)C(C)C
B8: SP-29 (peptide)
peptide: Ac-DFIDEEVL[Nle][S5]LVI[S5][Nle]ALDRI-NH2
modifications: staple 10-14
SMILES: CCCC[C@H](NC(=O)[C@H](CC(C)C)NC(=O)[C@@H](NC(=O)[C@H](CCC(=O)O)NC(=O)[C@H](CCC(=O)O)NC(=O)[C@H](CC(=O)O)NC(=O)[C@@H](NC(=O)[C@H](Cc1ccccc1)NC(=O)[C@H](CC(=O)O)NC(C)=O)[C@@H](C)CC)C(C)C)C(=O)N[C@@]1(C)CCCC=CCCC[C@@](C)(C(=O)N[C@@H](CCCC)C(=O)N[C@@H](C)C(=O)N[C@@H](CC(C)C)C(=O)N[C@@H](CC(=O)O)C(=O)N[C@@H](CCCNC(=N)N)C(=O)N[C@H](C(N)=O)[C@@H](C)CC)NC(=O)[C@H]([C@@H](C)CC)NC(=O)[C@H](C(C)C)NC(=O)[C@H](CC(C)C)NC1=O
B9: SP-325 (peptide)
peptide: Ac-LLQ[S5]EEL[S5]RALDQVNIDE[S5]VL[Nle][S5]LVIE[Nle]G-NH2
modifications: staple 19-23, 4-8
SMILES: CCCC[C@H](NC(=O)[C@H](CCC(=O)O)NC(=O)[C@@H](NC(=O)[C@@H](NC(=O)[C@H](CC(C)C)NC(=O)[C@]1(C)CCCC=CCCC[C@](C)(NC(=O)[C@H](CCC(=O)O)NC(=O)[C@H](CC(=O)O)NC(=O)[C@@H](NC(=O)[C@H](CC(N)=O)NC(=O)[C@@H](NC(=O)[C@H](CCC(N)=O)NC(=O)[C@H](CC(=O)O)NC(=O)[C@H](CC(C)C)NC(=O)[C@H](C)NC(=O)[C@H](CCCNC(=N)N)NC(=O)[C@]2(C)CCCC=CCCC[C@](C)(NC(=O)[C@H](CCC(N)=O)NC(=O)[C@H](CC(C)C)NC(=O)[C@H](CC(C)C)NC(C)=O)C(=O)N[C@@H](CCC(=O)O)C(=O)N[C@@H](CCC(=O)O)C(=O)N[C@@H](CC(C)C)C(=O)N2)C(C)C)[C@@H](C)CC)C(=O)N[C@@H](C(C)C)C(=O)N[C@@H](CC(C)C)C(=O)N[C@@H](CCCC)C(=O)N1)C(C)C)[C@@H](C)CC)C(=O)NCC(N)=O

molecular target: T1, His6-tagged p300 (AA 323-423) (UniProt Q09472 323-423); assay: TR-FRET HIF1a/p300 displacement; grade = IC50 >700 nM
T1 construct: range 323-423; also called p300-CH; not shown: His6 tag
T1 sequence (Q09472 323-423 limits assumed): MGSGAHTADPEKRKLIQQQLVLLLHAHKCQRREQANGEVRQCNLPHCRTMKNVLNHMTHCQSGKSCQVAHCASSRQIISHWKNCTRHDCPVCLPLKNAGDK
Method in brief: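 Peptides competed with HIF1α C-terminal transactivation domain for His6-p300-CH (complex 300 nM final) during 1 h at RT in 20 mM HEPES pH 7.4, 150 mM NaCl, 7.5 mM CHAPS, 1 mM DTT. Anti-Flag-K (0.5 μM) and anti-His-D2 (4 nM) were added for 2 h. IC50 was derived from the TR-FRET ratio by one-site fit.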

IC50, > 700 nM:
B1
B2
B3
B4
B5
B6
B7
B8
B9

— patent US20190225650A1, “PEPTIDOMIMETIC MACROCYCLES AND USE THEREOF IN REGULATING HIF1ALPHA” (AILERON THERAPEUTICS, INC., priority 2013, published 2019)
